In a protein production outcome set (Wang et al. 2014):

Assay: label from the status in PepcDB records
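Also: failed if final PepcDB status was selected cloned or expressed and not failed if soluble or beyond.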

In the case of “MDNVGCDKRISWPCHCSKSRTAPRRGSHLMARGRKRRFNPNIPGHIEQEALPKGIYWENGRWYMHEDHPDGGRQVKRTVAFRSARLSELHAIAESRLRGDVRGTLRYLFDRFHEASEFKELQHDTQKDYRRYADTLANYVRKDGSKLGGVQLEHITTPVVQRLLETFANGRPATRLQQALPPTPSKANHLYRYLRRTLAWGVRHGYCKENPAIGVLQAKEAKAFRMPTPDAFEAVLQFARERGALKPHTKGSFPSYLPPVMVLAYSARLRGIEVCSLTDAHRLEHGVHASRRKGSRDTLTTWDAHMTEAWEALLARRSEICNKPGRNFPIPMKPEERFFLIEQTGNPIVKSSLDSAWQRFIPAAIRDGVIKSEERFSLHGLKHRGVTDTEGNRGDKQDAAGHVSSSMTDRYDHELPVVKPPRRR”, the protein production is reported as “failed”.

In the case of “MTDGTTDGLNKAAVFICHCSGNISEHVDINTVKKTLKAEGFSVYDYEYLCSSQGQALIKKKISEGHVDRVVIGSCTPSKHGTLFKKCIQETGLNRAGLEIANLREQCAWVHPDREGATEKALSLLKAKLKRLENIEPLEDIKVDIAQQVLVIGGGIAGITAALNLADNGVPTFLVEKDSSIGGQMAKIGKIFSPDKLAEECAMCSLSPLMNEVAAHPRITLLTWTEVEKLSGSAGNFTVRLKKKPRYVKDNCIACGKCSRVCPVSVEDEFNCGYMDKKAISLRFSQSVPKVYFIDPDSCLRLKGENCGKCAEACKTGAIDFSQKEEIIELNVGAVVVATGFEEYDVSQKPQYGYGIFENVLTQMELARVLGINGPTKGELLRISDFSKASSDPAPSTCDSRCESSSDHPFEVETPERIVMIQCVGSRDEKEGGNRYCSRYCCMAALKHASLIKKRYPKTEITICYIDMRAFGFYENYYRAVQETGVNFVRGRPAEVIEKPDKSLVVRVEDTLSQKIKEIPADMVVLSAAMVPSPGTKKIASVLNLSQDESGFIKERHSKLKPVDCSLDGIFVCGTAQSPKDVTDTIAQAGLAAVRARAFITDSPKVLDNEIAAINQLLCTRCGECLKCPFDALSINENGRVVLDPLICTGCGYCTELCREGAVQIAGFTKSQLKAELEGVLEEGDVLGFVNSGISSLTCDNIGNSVLTYPSSVKLIKVPTCLIVDRDLVLHAFRHGASSVLFVEDPPDSPRAEVIYPLTVSHFEKLKEELGDSGKRIHFKKAYVPNIKGLAGTFTSLAREGEMIK”, the protein production is reported as “failed”.

In the case of “MAQQNAEHIADWRGQSGERWAAYQARLDAMMAPFGQAAIEAAAPTTGERVLDVGCGAGASSRDLAARVGAEGHVLGVDISEPLIERARALAPQDMSVVFRVTDASRAELPDGAFDILFSRFGVMFFNDPTGAFAHMRRALKPGGRAAFVCWRGVTENDWMRLPMGAMKGILPSMTPPGPEAPGPFSFGDQERVERILTKAGFTDIAIEPFDASVSFGEGATRDAALDDAVNMTLEVGPLSRVLADQPDDIRDRASVAVRAALSGCPGERSVMINGATWIVTARNPAS”, the protein production is reported as “failed”.

For “IHHLPPVKAPLQTKKKIMKHCFLCGKKTGLATSFECRCGNNFCASHRYAEAHGCNYDYKSAGRRYLEEANPV”, the protein production was “not failed”.

For “MAKIDALAPQYSRIILLGHSAGGMIVRDAYLLAAGAYLDQPSRGAWWSKVESVLLFASINRGFRPYATATWALGMALMKLVSLQWLLLKPPSWFTLGWLMELEKGSFFVTDLRLSWMRHFHERDDEHRPFVVQFLGDIDGVVAREDVRDTEAFANSYTVTIEGADHSNLFDPAAPPGAAGFMRIMEVFRNPDPQLHEPEQAGELPATGPGRVVFVLHGIRDGNSGWVTDIAEAIEQQAKSDGQGKPLAAACSGHESPVLVDRSTYGWFSAIKFALPWVRRGNLAWFLDRYSYHVARNPDVQFHFVGHSNGTYILGTSLLEVSSLKFDRVYLAGSVLPREFPWQRMMLRRQVATVANQCSSEDWPVGGLCRGLHLIGFRDVGTGGVDGFDELRDLPTQPQTLWFKGDHGKPLQRPNQPNIVNYVLASHIATPLLSAPTGADLCERPSFWFRARMYGFALLTALGVGAAFYGAWWGFTHDHEGLVIAGILLLYFVLNTI”, the protein production was “failed”.

With “MLEKSLAILFALLILATLINRFLVWRLPERKGDEVTLRIRTWWGIVICFSLVISGPRWMTLTFFALISFLALKEYCTLISVHFPRWLYWVIPLNYLLIGFNCFELFLLFIPLAGFLILATWRVFVGDPSGFLHTVSAIFCGWIMTVFTLSHAAWLLMLPTINIQGGALLVLFLLALTESNDIAQYLWGKSCGRRKVVPKVSPGKTLEGLVGGVITTMIASLIIGPLLTPLNTLQVLLAGLLIGISGFCGDVVMSATKRDVGVKDSGKLLPGHGGLLDRIDSLIFTAPVFFYFIRYCCY” the protein production was “failed”.

In the case of “MNAIWIAVAAVSLLGLAFGAILGYASRRFAVEDDPVVEKIDEILPQSQCGQCGYPGCRPYAEAISCNGEKINRCAPGGEAVMLKIAELLNVEPQPLDGEAQEITPARMVAVIDENNCIGCTKCIQACPVDAIVGATRAMHTVMSDLCTGCNLCVDPCPTHCISLQPVAETPDSWKWDLNTIPVRIIPVEHHA”, the protein production is reported as “failed”.

In the case of “MSLCRWAAYHGTPIFLEDVISRPGHSLIAQSAHAEECKTATNGDGFGVAWYDARPEPGLYRDVYPAWSDPNLRAVAHHVRSGLFLSHVRASTGSCISRNNCHPFAARRWCFMHNGQVGGFEAFRKQADMAIADEFYTYRKGSTDSEVLFLLALSEGLEHDPHGALARAIARLEGLSRAHGTTPHMRLSAAFSDGQTLYAARYSSDHIAPSVYYRYSHARQGWAVVSEPLETDEGDWTELRPGRMLTIGAEGAAERDFAPADLGRAAEGHHHHHH”, the protein production is reported as “not failed”.

With “MNNVTTTLTDTTWYKAGTITDVPENGGACAMIQGKQIAIFNFTRRDEWFATDNLCPHKQQMILSRGMIGDMSEEPKVACPFHKKSFSLKDGHCMSGDDYTIKTYPIKVEDGLIFIGLNE” the protein production was “failed”.

For “MSITLITAAPGAGKTIFAVWNIIKPAVEADRVVYTAGIPELKLPAISLSYSQVKRWADRELVEVENPSGIPIPDDEKPSRLQNITEGALIVIDEVQYLWPASGSREPGEDIKYLTKHRHHGLEFVLITQAPQLIHKNVLAVVDKHIHMLSDWHGRKRYEWPEYCATVRATSSKLKAVSQRYELPKEAYGLYRSASMHI”, the protein production was “failed”.

With “MKYRQWVLGAGFTLSVGLSSVAHAFSIPQPANEIAASKFVHIQVQAEQGDADAQFLLGLMFLSGRYVQQEVPSGLHWITLAAEQQHEKAQQTLADLSFEGQLIKRDLAVAERWYKDMGERGNRWAQFRLGFIYASGGDGVKRNCGKAVEQFTRVGDDIALGNVAWILATCPEAEYRDGNKALELSLQLLKVNENDPTNLDNLAAAYAEVGDFGAAVSTQQKAIAALKMTAEATKTDEFKQRLHSYEQKRAYRETLRLLE” the protein production was “failed”.

With “MQDRCPHQDHRSIPTIMPDLEPDTVSALEAPEFAPAQFVRWFREVAPYVHAFRGKTFVVAFGGELVQAGALNVLVQDLSLLSALGIHLVLVHGSRPQVNEQLRLKGYTQQFGRGLAPTDPAALECAKEAAGEIRLDIEAAFSQGLPNTPMSHSHIRVLSGNFVTARPTGVVDGIDYKHTGQVRKIDVDALKFAIEQGSVVLLSPLGFSPTGDAFNLAMEDLATSVAVALRAEKLIFLSGEPGVLDGNGAVDTELARVDADALLARGELDEDTTYFLQHASLAVKRGVARAHLVPYALDGSVLLEIFTHDGVGTMVVEDTLDDLRAATLDDVGAILSLIEPLETDGTLVPRPRSAIERDVERFTVLEHDGVIYGCAALYPFPEDQMAEMACLIVHPEWQGSGEGEILLRHMESRARASGARRLFVLTTRTSHWFMKRGFVRGGVADLPRDKQNNYNRSRNSLVFIKKL” the protein production was “failed”.

With “DDNERLSKVEKARQLREQVNDLFSRKFGEAIGMGFPVKVPYRKITINPGCVVVDGMPPGVSFKAPSYLEISSMRRILDSAEFIKFTVIRPFPGLVINNQLV” the protein production was “not failed”.

In the case of “MLKSGETNGVQSNVVRASSRMRGLAEPGIKDNQGRTWRRLIVTDCFISTKVWYSLYKGTLEATRKRVSDYISDLTMVEIIGLQAFTTDGGIAS”, the protein production is reported as “failed”.

In the case of “MDFLVAHFNLLRGLHILAVIAFMAGMLYLPRLFVYHTKATPGSQMDETFKVMERRLLRGIINPASIATAVFGLGLILADAQIRGWDFLLQPWMIAKLVALVGLYGFHGFLSASRKKFERGENVRSEKFWRMVNEIPFVLAIVIVMSVTTKYLNH”, the protein production is reported as “failed”.

For “MKKRFSNKVLIIGYGSVSQCTLPLLLDKLDIPLENITLIDFEDKSKALKKYTNQGLTFVREKITPENLDQVLSQNMENEGMIIDLSWNIDANEIVKWCHDHDVLYVNTSVEVWDPAEKFLTQSLLEKSLYLRQMRLQELSRDWKDAPTAVVDHGANPGLITHFVKQGLLDIAARTCEDKKVSPEDEQEIALLAKNRDFARLARKLGIRVIHCSERDTQIASRPKEVNEFVGTWSIEGLREEGTAPVEIAWGTHESKLPPLAHIPPYGPKNVILLPQMGVNAWVRSWIPDEEIVGMAIRHGESYGLSKLLTVWEGEKAVYRPTVHYAYMPSHDTLSSLCELRGRNYELQPRLRIMTNEIVSGEDIMGALLMGHSYNSWWTGSALSIEEARSLAPGQNATTLQVAAGIVAAILWMLENPREGVKTPEDLPHDFVLDIARPYLGKFISTPSDWTPLKNRKIFFKESPAVKHDPDPWQFENFIFVGLEHHHHHH”, the protein production was “not failed”.

For “MNEKTINEQYAYIRTLLEEKRLKEALMQLESLLWQCPDWDLRTRLEQLQTSYKYMLEYMRQGANDPERWNVYRKLIADTWEIADRSRLLMLDNASSRYYHEVRRTPRPESLSAYTLKKLLHMLESFNDDLAVSGLLSDEKMDEVLKRHEETLKYMFLQTWTNSAWTPEEEEDAQSMLTSELLPVNDLCLFISAVTLSLMECFDLRKIMWLLDAYRHPDVNAGQRALVGVIFIFHIYKNRLSLYNDLVKRVDLMDEISPFKEDVARIYHQMLLCQETEKIDKKMREEIIPEMLKNVSSMRNMRFGFEENEDENDDKNPDWADAFEQSGLGDKLREMNELQLEGADVYMSTFAALKSYPFFREVQNWFYPFSKQQSDVIKQLKQEGNEKNTLLDLILQSGFFSNSDKYSLFFTIRQLPKAQQDMMLSQLGEQQVAELTEKSSAETMKKFNERPGTVSNQYLHDLYRFFKLSVRRHEFRDIFKEKLDLHHIPALSNVLYSEDILFPIADFYLKKERWNEAIEVYEEMETIGALQERGAEYYQKLGYALQKSKKYAEAIGAYLKADTLKPDNIWNNRHLAICYRLNRNYQAALSYYKKVEEATPEDTNVIFHIGSCLAELGQYEEAANYFFKLDFIESNCIKAWRGIGWCSFISRKYEQAMKYYEKIIEQKPLAIDYMNAGHVAWTMGDIQKAAALYGKSITANGNRERFLEMFRKDEEALLKQGIQEEDIPLMLDLL”, the protein production was “failed”.

With “PITFWYGKYIILIPSSYFKSVIDKRLKYIILHEYAHAKNRDTLHLIIFNIFSIIMSYNPLVHIVKRKIIHDNEVEADRFVLNNINKNEFKTYAESIM” the protein production was “failed”.

For “MLSFRARLFLAFALLWLLFLGGGWYLAGRSVDQALKRRLEATLAQDALRAAEAYQKGQAGALLTTGGVYLHLYAQDGTPIALTRPDHRLPPERLRRAGPTPEVLWEEGFAAALVATPLGLLVLTAETSPIEAALEALREALLRAFLLLSPLGLALVYLTARLAARPLEAVAREITRRSPDRLDPVPHRLPQDEFGRMVEAVNALLQALKEAKERERAFLAEASHELRTPLTVLLGHLDRLGRNPQDLEALRTARATAERMRRLVEDLLALARGEVERNLNLHIVDLGEVAREAALEHGVAAEAESAEVLGDPDRLLQLLRNLVANAVRAAGKEGVRVRVRREADHALLEVEDSGPGIPEDLLPRLFQRFARGPGGGTGLGLAIAHAIAKAHGGEIAVESRPGRTVFRVRLPLLEEEA”, the protein production was “failed”.

For “TDAFVFEGFLPTRGKRRLEKLANLKGEQRVVIFYEAPGRLQAALADMREVLGDRHVVVARELTKIHEEFVRGRVSFVAEHFAAVDVKGEVVILVAPAPAP”, the protein production was “failed”.
